Measurements reported in IntAct's records for PubMed 19525971.

B1: Charged multivesicular body protein 3 (Homo sapiens), Q9Y3E7-1 (parent)
chain: MGLFGKTQEKPPKELVNEWSLKIRKEMRVVDRQIRDIQREEEKVKRSVKDAAKKGQKDVCIVLAKEMIRSRKAVSKLYASKAHMNSVLMGMKNQLAVLRVAGSLQKSTEVMKAMQSLVKIPEIQATMRELSKEMMKAGIIEEMLEDTFESMDDQEEMEEEAEMEIDRILFEITAGALGKAPSKVTDALPEPEPPGAMAASEDEEEEEEALEAMQSRLATLRS
partner: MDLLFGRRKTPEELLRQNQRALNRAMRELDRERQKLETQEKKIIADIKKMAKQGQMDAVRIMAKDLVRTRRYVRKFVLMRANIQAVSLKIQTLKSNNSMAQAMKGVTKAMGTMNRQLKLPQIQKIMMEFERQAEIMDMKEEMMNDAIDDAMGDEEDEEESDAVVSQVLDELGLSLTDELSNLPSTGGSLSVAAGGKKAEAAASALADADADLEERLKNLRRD

Variants of: B1
Conditions: with chm2a_human CHMP2A

Variant	effect of a mutation on the interaction
V59D;V62D;I168D;L169D	disrupting interaction
V59D;V62D	disrupting interaction
